Results published in patent publication US11260100B2, “Compositions targeting the interaction domain between p27Kip1 and Brk and methods of use thereof to inhibit p27 Y phosphorylation and cdk4 activity” (The Research Foundation for the State University of New York, priority 2014, dated 2022).

Columns and labels:
[1] = system: MCF7 breast cancer cells; assay: Proliferation with ALT and Palbociclib at IC50 concentration (FIG. 9); assay type: cell-based, human
Method: FIGS. 9A-9B: AltBrk Synergizes with Palbociclib. ALT, Palbociclib, or Brk alone or in combination were added to or expressed in MCF7 breast cancer cells on day 2 post plating. Drugs were added at their IC50 concentration, based on previous results. ALT is expressed from an ALT-MCF7 tetracycline inducible cell line generated in the Blain lab. When tetracycline is added to the cell culture media, ALT is expressed in these cells. Vector: no tetracycline was added, so no ALT induction was detected. (FIG. 9A) Cells were harvested and counted every two days, as a measure of proliferation. Proliferation is plotted as a percentage relative to that seen in the DMSO treated control. Drugs and media were replaced every two days. (FIG. 9B) Viability was measured by trypan blue staining, and plotted relative to viability seen in the DMSO treated control.
Additional experiments were performed assessing activity of Brk in combination with Palbociclib. The data presented in FIGS. 9A and 9B reveal that Palbociclib and Brk inhibit proliferation for 2 days, and then resistance is observed (proliferation increases). Alt maintained arrest for roughly 10 days (50% inhibition of proliferation is detected). […] Alt-Brk/Palbociclib combination leads to a more durable cell cycle arrest. Mono therapy treated cells start to become resistant between day 8-10. […]

[2] = system: MCF7-ALT cells; assay: Long-term proliferation arrest at IC100 (FIG. 15A); assay type: cell-based, human; settings: IC100 Palbociclib, doxycycline induced ALT, replenished every two days
Method: FIGS. 15A-15C: ALT and PD treatment increases senescence, a clinical goal. FIG. 15A: MCF7-ALT cells were treated with IC100 concentration of Palbociclib (PD) or doxycycline to induce ALT. Drugs were replenished every two days and proliferation was determined by cell counting as indicated. Proliferation rates were standardized to the rate of proliferation seen in DMSO treated cells (control). PD treated cells were arrested for 10 days, before escape (proliferation) was detected. ALT expressing cells were arrested for 18 days before escape (proliferation) was detected. ALT expressing and PD treated cells were arrested for 30 days, with no escape detected. […] Proliferation was assessed by counting. […] Viability was measured by trypan blue staining and the ALT expressing, PD treated cells that weren't growing were viable. […]
MCF7-ALT cells were treated with a IC100 concentration of Palbociclib (PD) or doxycycline to induce ALT. Drugs were replenished every two days and proliferation was determined by cell counting as indicated. […] PD treated cells were arrested for 10 days, before escape (proliferation) was detected. ALT expressing cells were arrested for 18 days before escape (proliferation) was detected. ALT expressing and PD treated cells were arrested for 30 days, with no escape detected. […] Proliferation was assessed by counting. […]

B1: Alt-Brk: alternative splice variant of Brk (SEQ ID NO: 17), 15 KD protein with SH3 domain, lacks kinase domain (protein, listed as Homo sapiens)
chain: MVSRDQAHLGPKYVGLWDFKSRTDEELSFRAGDVFHVARKEEQWWWATLLDEAGGAVAQGYVPHNYLAERETVESEPAGHAGCAALQDLAACRGPAAPERGGVLPQPARACELPQGPEPVPRPAAGRALPEARA
- duration of proliferation inhibition / arrest ([1]; drugs at IC50 concentration, replaced every two days): roughly 10 days
- inhibition of proliferation ([1]; during arrest): 50%
- time arrested before escape (proliferation) [2]: 18 days
